{"source": "paper PMC8324772", "key": {"[1]": {"biological_target": "Klebsiella quasipneumoniae Qmp M1-977 TolC (KqTolC), recombinant, C-terminal His6 (Klebsiella quasipneumoniae)", "assay": "ITC; KlebC constructs in the syringe (76-89 µM), TolC trimer in the cell (5-7.6 µM); 25 mM Tris-HCl pH 7.5, 1% (w/v) β-OG; no feedback mode, 750 s between injections; single set of identical sites"}, "[2]": {"biological_target": "Klebsiella quasipneumoniae Qmp M1-977 TolC (KqTolC), recombinant, C-terminal His6 (Klebsiella quasipneumoniae)", "assay": "ITC + other: stopped-flow fluorescence; koff not measured (too slow): estimated from the Kd by ITC and the kon by stopped-flow, assuming Kd = koff/kon"}, "[3]": {"biological_target": "Klebsiella quasipneumoniae Qmp M1-977 TolC (KqTolC), recombinant, C-terminal His6 (Klebsiella quasipneumoniae)", "assay": "stopped-flow fluorescence (pre-equilibrium, tryptophan emission); 0.5 µM KqTolC with excess KlebC_(1-254), pseudo-first-order, 25 °C; kapp from single exponential fits, kon from the gradient of kapp against concentration"}, "[4]": {"biological_target": "TolC of Klebsiella quasipneumoniae Qmp M1-977, endogenous (Klebsiella quasipneumoniae (endogenous in K. quasipneumoniae Qmp M1-977))"}, "[5]": {"biological_target": "Klebsiella quasipneumoniae Qmp M1-977 TolC (KqTolC), recombinant, C-terminal His6 (Klebsiella quasipneumoniae)", "assay": "cryo-EM structure; KqTolC-KlebC_(1-254) mixed in β-OG and transferred into amphipol A8-35 without cross-linking; only KqTolC resolved; 3.4 Å"}, "[6]": {"biological_target": "Klebsiella quasipneumoniae Qmp M1-977 TolC (KqTolC), recombinant, C-terminal His6 (Klebsiella quasipneumoniae)", "assay": "equilibrium fluorescence (Trp-to-AEDANS FRET within KlebC); 1 µM Q204C^AEDANS KlebC_(1-254) without and with 1 µM KqTolC trimer; excitation 280 nm, FRET signal at 490 nm, 25 °C"}, "[7]": {"biological_target": "Klebsiella quasipneumoniae Qmp M1-977 TolC (KqTolC), recombinant, C-terminal His6 (Klebsiella quasipneumoniae)", "assay": "stopped-flow fluorescence (pre-equilibrium, loss of Trp-to-AEDANS FRET); Q204C^AEDANS KlebC_(1-254) in excess, pseudo-first-order, 25 °C; single exponential fits"}, "[8]": {"biological_target": "Klebsiella quasipneumoniae Qmp M1-977 TolC (KqTolC), recombinant, C-terminal His6 (Klebsiella quasipneumoniae)", "assay": "stopped-flow fluorescence (pre-equilibrium, loss of Trp-to-AEDANS FRET); TolC in excess, pseudo-first-order, 25 °C; single exponential fits"}}, "data": [{"substance": "KlebC_(1-254) (domain or fragment)", "values": [{"measurement": "Kd", "setting": "[1]", "value": 35, "unit": "nM"}, {"measurement": "dH", "setting": "[1]", "value": 30.6, "unit": "kcal/mol"}, {"measurement": "stoichiometry N (binding sites per TolC trimer)", "setting": "[1]", "value": 0.9}, {"measurement": "koff", "setting": "[2]", "value": "5e-05", "unit": "s⁻¹"}, {"measurement": "kon", "setting": "[3]", "value": 1900, "unit": "M⁻¹ s⁻¹"}]}, {"substance": "KlebC_(51-254) (domain or fragment)", "values": [{"measurement": "Kd", "setting": "[1]", "value": 368, "unit": "nM"}, {"measurement": "dH", "setting": "[1]", "value": 20.8, "unit": "kcal/mol"}, {"measurement": "stoichiometry N (binding sites per TolC trimer)", "setting": "[1]", "value": 1.34}, {"measurement": "growth of K. quasipneumoniae on LB-Agar with 1 mg ml^−1 Rhodamine 6G after serial dilution in 1 or 10 µM KlebC (51-254)", "setting": "[4]", "value": 4, "unit": "log"}]}, {"substance": "Klebsiella quasipneumoniae Qmp M1-977 TolC (KqTolC), recombinant, C-terminal His6 (natural protein)", "values": [{"measurement": "stoichiometry N", "setting": "[5]", "value": 3}]}, {"substance": "Q204C^AEDANS KlebC_(1-254) (domain or fragment)", "values": [{"measurement": "decrease of the Trp-to-AEDANS FRET signal at 490 nm upon addition of equimolar TolC trimer", "setting": "[6]", "value": 77, "unit": "%"}, {"measurement": "kon", "setting": "[7]", "value": 2900, "unit": "M⁻¹ s⁻¹"}, {"measurement": "kon", "setting": "[8]", "value": 6700, "unit": "M⁻¹ s⁻¹"}]}]}
